Measured values from US20110166074A1.

Legend:
[1] = biological target: Cy3-labeled Alzheimer's amyloid-beta fibrils
[2] = biological target: mannose 6-phosphate receptor (MPR) on cultured rat cerebellar granule neurons (rat) (UniProt P70580); assay: cell-based or functional assay
UniProt P70580, sequence (P70580 whole entry): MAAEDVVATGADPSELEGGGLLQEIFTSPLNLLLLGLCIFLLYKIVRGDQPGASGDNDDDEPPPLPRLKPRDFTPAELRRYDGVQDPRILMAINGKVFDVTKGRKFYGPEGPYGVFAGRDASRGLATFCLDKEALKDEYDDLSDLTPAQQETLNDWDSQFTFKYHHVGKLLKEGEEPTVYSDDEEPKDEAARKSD

- EC50 of M6P inhibitable uptake into rat cerebellar granule neurons (intracellular TPP1 activity) [2]: 6 to 8 nM
B1: recombinant human CLN2 protein produced in CHO cells (proCLN2, 65 KDa precursor) (protein)
chain: SYSPEPDQRRTLPPGWVSLGRADPEEELSLTFALRQQNVERLSELVQAVSDPSSPQYGKYLTLENVADLVRPSPLTLHTVQKWLLAAGAQKCHSVITQDFLTCWLSIRQAELLLPGAEFHHYVGGPTETHVVRSPHPYQLPQALAPHVDFVGGLHRFPPTSSLRQRPEPQVTGTVGLHLGVTPSVIRKRYNLTSQDVGSGTSNNSQACAQFLEQYFHDSDLAQFMRLFGGNFAHQASVARVVGQQGRGRAGIEASLDVQYLMSAGANISTWVYSSPGRHEGQEPFLQWLMLLSNESALPHVHTVSYGDDEDSLSSAYIQRVNTELMKAAARGLTLLFASGDSGAGCWSVSGRHQFRPTFPASSPYVTTVGGTSFQEPFLITNEIVDYISGGGFSNVFPRPSYQEEAVTKFLSSSPHLPPSSYFNASGRAYPDVAALSDGYWVVSNRVPIPWVSGTSASTPVFGGILSLINEHRILSGRPPLGFLNPRLYQQHGAGLFDVTRGCHESCLDEEVEGQGFCSGPGWDPVTGWGTPNFPALLKTLLNP
- percent of Cy3-fAβ degraded in microglia at 12.5 nM CLN2 (against mannose-6-phosphate control) [1]: insignificant (2%) degradation at 12.5 nM
- percent of Cy3-fAβ degraded in microglia at 25 nM CLN2 (against mannose-6-phosphate control) [1]: 19% at 25 nM
- percent of Cy3-fAβ degraded in microglia at 50 nM CLN2 (against mannose-6-phosphate control) [1]: 22% degradation at 50 nM CLN2
- percent of Cy3-fAβ degraded in microglia at 100 nM CLN2 (against mannose-6-phosphate control) [1]: -30% degradation of the Cy3-fAβ when 100 nM of CLN2 was added to microglia
